From paper PMC7267768, “Three kinds of treatment with Homoharringtonine, Hydroxychloroquine or shRNA and their combination against coronavirus PEDV in vitro” (Virology Journal, 2020)

Target: T1, HR1 peptide of the PEDV spike glycoprotein (optimal focused HR1 domain) (porcine epidemic diarrhea virus (PEDV))
T1 construct: Spike glycoprotein of porcine epidemic diarrhea virus (PEDV), heptad repeat 1; numbers count on: GenBank ALS35469.1; source: synthetic peptide (China Peptides)
T1 peptide: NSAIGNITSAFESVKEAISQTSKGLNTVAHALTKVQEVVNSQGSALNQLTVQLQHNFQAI
Test: SEC; HR1 and tHR2 mixed, each at 15 uM, incubated 2 h; Superdex G75, 20 mM Tris-HCl pH 8.0; mass estimated against protein standards
Conditions: both partners purified

B1: truncated HR2 peptide tHR2 of the PEDV spike glycoprotein (1278-1316, 39Aa) (peptide)
peptide: LTGEIADLEQRSESLRNTTEELRSLINNINNTLVDLEWL
notes: Spike glycoprotein of porcine epidemic diarrhea virus (PEDV), truncated heptad repeat 2, residues 1278-1316 (39 residues); the predicted HR2 domain is 1263-1314; numbers count on: GenBank ALS35469.1; source: synthetic peptide (China Peptides)
  stoichiometry N: ~1 tHR2 per HR1 (3:3)
